{"source": "patent US20090324600A1", "about": "(PIERRE FABRE MEDICAMENT, published 2009)", "molecules": {"B1": {"name": "TS151 antibody (antibody, mouse IgG1, V domains shown)", "VH": "QIQLVQSGPELKKPGETVKISCKASGYTFTDYSMHWVKQAPGKGLKWMGWINTETGEPTYTDDFKGRFAFSLETSANTAYLRINNLKNEDTATYFCARREYGNYYGMEYWGQGTSVTVSS", "VL": "DIVLTQSPASLAVSLGQRATISCRASQSVSTSTFSYIHWYQQKPGQPPKLLIKSASNLESGVPARFSGSGSGTDFTLTIHPVEEEDTATYFCQHSWEIPLTFGAGTKLELK", "notes": "Murine monoclonal from a hybridoma; also called anti-CD151 antibody TS151"}, "B2": {"name": "TS151r antibody (antibody, mouse IgG1, V domains shown)", "VH": "QVQLQQPGSVVVRPGASVKLSCKASGYTFTSSWMHWAKQRPGQGLEWIGQIHPNSGNTNYNEKFKVKATLTIDTSSSTAYVDLNSLTSGDSAVYYCARGDDAYYSGLYAMDYWGQGTSVTVSS", "VL": "DIVLTQSPASLAVSLGQRATISCRASQSVSTSRYSYMHWYQQIQGQPPKLLIKYASNLESGVPARFSGSGSGTDFTLNIHPVEEEDTATYHCQHSWEIPYTFGGGTTLEIK", "notes": "Murine monoclonal from a hybridoma"}}, "key": {"integrin α3β1": {"biological_target": "integrin α3β1 (UniProt P26006)", "sequence (P26006 33-1051, chain 1 of 2)": "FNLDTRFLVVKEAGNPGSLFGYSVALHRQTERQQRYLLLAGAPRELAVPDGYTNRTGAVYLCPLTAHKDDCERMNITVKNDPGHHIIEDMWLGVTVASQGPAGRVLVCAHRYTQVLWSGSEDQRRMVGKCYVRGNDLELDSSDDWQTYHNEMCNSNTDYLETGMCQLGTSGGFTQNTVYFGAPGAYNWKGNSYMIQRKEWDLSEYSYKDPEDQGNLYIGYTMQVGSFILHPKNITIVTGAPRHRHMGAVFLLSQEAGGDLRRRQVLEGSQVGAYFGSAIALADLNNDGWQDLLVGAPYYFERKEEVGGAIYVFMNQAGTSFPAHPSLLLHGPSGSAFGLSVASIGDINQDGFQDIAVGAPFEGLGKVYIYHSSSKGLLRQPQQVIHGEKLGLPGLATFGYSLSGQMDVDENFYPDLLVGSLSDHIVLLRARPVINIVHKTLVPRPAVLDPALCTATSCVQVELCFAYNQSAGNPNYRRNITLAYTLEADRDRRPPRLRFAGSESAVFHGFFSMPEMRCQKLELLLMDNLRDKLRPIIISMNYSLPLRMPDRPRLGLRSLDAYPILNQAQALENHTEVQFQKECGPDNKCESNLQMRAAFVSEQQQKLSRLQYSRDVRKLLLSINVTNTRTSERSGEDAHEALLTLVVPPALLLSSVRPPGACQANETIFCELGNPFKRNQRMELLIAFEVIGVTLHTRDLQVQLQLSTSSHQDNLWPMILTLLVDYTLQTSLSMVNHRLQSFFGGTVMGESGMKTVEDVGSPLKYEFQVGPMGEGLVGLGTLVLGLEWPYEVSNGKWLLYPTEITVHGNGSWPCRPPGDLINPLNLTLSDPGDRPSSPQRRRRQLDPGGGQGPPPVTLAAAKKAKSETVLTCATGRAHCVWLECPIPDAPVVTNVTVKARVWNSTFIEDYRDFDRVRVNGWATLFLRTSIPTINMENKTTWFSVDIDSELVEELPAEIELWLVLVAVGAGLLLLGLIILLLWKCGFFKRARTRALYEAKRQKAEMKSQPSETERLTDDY", "sequence (P05556 21-798, chain 2 of 2, further chain)": "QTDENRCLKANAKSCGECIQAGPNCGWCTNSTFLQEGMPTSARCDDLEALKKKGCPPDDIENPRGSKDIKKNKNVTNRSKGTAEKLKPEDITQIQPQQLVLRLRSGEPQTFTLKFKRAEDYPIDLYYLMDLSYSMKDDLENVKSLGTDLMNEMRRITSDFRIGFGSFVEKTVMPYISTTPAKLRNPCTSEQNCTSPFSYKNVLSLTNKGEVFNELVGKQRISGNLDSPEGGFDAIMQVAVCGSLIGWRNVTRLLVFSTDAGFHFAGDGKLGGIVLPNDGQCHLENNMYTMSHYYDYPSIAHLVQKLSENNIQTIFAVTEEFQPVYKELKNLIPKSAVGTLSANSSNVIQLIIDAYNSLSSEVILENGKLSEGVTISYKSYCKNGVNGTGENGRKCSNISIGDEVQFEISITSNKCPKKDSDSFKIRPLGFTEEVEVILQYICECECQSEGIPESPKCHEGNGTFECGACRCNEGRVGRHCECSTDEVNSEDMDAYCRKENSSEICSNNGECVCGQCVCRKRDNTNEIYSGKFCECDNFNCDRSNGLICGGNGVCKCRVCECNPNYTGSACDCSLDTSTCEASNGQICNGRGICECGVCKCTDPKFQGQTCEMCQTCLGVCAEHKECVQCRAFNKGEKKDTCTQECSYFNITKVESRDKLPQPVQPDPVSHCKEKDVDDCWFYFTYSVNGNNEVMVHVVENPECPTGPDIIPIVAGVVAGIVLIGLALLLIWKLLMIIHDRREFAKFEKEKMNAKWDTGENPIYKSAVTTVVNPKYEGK", "assay": "cell-based or functional assay"}, "integrin α6β4": {"biological_target": "integrin α6β4 (UniProt P23229)", "sequence (P23229 24-1130 limits assumed, chain 1 of 2)": "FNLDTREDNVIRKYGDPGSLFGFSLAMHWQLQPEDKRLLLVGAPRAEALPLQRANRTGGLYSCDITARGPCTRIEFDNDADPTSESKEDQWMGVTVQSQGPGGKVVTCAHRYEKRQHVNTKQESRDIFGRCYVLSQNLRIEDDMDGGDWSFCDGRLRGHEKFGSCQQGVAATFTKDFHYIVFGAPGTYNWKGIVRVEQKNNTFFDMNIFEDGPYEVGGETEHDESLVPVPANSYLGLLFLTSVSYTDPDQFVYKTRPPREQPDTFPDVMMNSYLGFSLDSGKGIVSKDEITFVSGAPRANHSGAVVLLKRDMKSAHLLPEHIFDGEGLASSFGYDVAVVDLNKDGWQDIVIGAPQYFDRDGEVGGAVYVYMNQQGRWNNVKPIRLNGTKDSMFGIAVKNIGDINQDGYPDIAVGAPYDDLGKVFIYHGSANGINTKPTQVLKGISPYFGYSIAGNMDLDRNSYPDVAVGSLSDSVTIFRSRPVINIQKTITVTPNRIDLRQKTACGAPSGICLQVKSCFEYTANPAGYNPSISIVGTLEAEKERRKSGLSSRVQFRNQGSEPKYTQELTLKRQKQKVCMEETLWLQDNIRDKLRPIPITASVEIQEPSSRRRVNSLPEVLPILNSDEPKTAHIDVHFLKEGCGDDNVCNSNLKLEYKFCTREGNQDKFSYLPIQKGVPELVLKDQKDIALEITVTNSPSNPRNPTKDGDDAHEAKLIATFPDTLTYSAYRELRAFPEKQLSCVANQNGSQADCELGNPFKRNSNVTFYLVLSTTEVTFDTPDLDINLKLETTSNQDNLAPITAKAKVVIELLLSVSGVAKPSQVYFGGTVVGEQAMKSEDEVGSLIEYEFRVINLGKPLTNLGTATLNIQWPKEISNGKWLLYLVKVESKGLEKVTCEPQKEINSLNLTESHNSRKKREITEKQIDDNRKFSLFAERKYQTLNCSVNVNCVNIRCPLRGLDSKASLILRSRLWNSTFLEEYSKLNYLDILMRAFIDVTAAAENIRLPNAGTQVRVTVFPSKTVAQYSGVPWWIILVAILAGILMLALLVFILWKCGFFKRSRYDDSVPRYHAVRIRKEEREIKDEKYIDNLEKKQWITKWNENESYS", "sequence (P16144 28-1822 limits assumed, chain 2 of 2, further chain)": "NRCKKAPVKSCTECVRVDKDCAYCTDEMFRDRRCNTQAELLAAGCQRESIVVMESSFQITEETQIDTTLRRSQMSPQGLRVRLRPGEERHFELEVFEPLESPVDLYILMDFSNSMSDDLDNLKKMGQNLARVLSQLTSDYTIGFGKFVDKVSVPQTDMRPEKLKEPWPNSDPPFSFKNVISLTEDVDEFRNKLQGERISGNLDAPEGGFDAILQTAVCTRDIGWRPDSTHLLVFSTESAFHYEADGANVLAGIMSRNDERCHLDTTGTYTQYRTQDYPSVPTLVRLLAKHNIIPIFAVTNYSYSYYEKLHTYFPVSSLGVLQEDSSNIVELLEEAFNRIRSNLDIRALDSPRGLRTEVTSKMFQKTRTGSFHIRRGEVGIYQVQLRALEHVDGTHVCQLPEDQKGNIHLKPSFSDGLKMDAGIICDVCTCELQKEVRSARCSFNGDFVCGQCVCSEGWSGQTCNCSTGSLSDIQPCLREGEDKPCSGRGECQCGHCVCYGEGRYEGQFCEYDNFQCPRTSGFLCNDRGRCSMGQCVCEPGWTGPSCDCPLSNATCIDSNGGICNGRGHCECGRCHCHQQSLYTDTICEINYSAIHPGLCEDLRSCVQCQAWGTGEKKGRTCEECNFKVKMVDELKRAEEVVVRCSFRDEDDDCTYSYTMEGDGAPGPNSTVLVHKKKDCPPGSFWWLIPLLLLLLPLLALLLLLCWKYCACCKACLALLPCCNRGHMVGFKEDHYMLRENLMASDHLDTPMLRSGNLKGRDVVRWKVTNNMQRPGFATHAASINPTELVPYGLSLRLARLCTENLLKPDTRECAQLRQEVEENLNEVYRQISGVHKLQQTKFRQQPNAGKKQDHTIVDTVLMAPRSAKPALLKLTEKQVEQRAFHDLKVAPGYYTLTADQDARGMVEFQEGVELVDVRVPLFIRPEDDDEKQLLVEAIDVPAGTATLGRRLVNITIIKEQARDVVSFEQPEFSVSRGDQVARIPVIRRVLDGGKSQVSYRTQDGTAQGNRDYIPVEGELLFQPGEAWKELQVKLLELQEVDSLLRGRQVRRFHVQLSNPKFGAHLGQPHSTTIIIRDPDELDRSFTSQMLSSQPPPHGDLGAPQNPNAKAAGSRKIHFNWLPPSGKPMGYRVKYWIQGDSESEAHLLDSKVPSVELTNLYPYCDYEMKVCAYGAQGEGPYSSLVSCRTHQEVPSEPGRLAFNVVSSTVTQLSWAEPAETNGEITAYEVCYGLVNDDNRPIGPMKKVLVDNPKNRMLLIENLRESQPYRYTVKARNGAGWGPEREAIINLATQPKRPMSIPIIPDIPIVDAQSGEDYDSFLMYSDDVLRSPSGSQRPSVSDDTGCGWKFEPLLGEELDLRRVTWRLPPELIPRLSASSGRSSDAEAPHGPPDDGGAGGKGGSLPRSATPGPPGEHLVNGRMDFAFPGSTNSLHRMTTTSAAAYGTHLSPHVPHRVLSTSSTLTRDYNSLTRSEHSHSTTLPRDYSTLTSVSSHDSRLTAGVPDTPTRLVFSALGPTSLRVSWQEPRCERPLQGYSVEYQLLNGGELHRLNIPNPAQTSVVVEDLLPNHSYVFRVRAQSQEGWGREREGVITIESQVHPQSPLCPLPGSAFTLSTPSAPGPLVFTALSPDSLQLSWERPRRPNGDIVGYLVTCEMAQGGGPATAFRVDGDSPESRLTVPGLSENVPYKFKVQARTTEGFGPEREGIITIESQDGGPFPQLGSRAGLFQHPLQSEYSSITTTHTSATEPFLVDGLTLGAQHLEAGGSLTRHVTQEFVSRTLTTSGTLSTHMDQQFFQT", "assay": "cell-based or functional assay"}, "murine CD151": {"biological_target": "T1, murine CD151 (murine, UniProt O35566 1-253)", "T1 construct": "Endogenous protein in mouse tissue lysates on a Western blot; also called murine receptor", "T1 sequence (looked up)": "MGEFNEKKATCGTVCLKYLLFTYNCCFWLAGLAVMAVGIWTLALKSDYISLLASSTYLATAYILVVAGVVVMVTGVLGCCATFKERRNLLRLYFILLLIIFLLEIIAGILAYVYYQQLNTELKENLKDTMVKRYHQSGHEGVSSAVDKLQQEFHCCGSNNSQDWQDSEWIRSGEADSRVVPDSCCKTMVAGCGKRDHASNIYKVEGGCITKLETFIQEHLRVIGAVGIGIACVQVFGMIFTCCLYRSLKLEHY", "assay": "Western blot of murine lung, pancreas and colon tissue lysates (10 µg total protein), non-reductive conditions", "method": "The specificity of the TS151 and TS151r antibodies was evaluated by Western blot. Lysates of human and murine lung, pancreas and colon tissues (Biochain, 10 μg of total proteins) and also increasing amounts of HT-29 cell lysate (10, 20 and 50 μg of total proteins) were placed on a 4-12% acrylamide gel (BioRad). After electrophoresis (non-reductive conditions), the proteins were transferred onto nitrocellulose membranes. The transfer membranes were then incubated with the purified TS151 and TS151r antibodies and then with a rabbit anti-mouse Ig polyclonal antibody coupled to peroxidase (GE Healthcare) before ECL-type visualisation."}}, "data": [{"molecule": "anti-integrin α3 antibody P1B5", "values": [{"measurement": "inhibition of adhesion of A549 cells on laminin 5, 15 minutes", "setting": "integrin α3β1", "result": "> 90", "unit": "%"}, {"measurement": "inhibition of adhesion of A549 cells on laminin 5, 1 hour", "setting": "integrin α3β1", "result": 20, "unit": "%"}]}, {"molecule": "anti-integrin α6 antibody NKI-Go3", "values": [{"measurement": "inhibition of adhesion of A549 cells on laminin 5 after 1 hour, NKI-Go3 in association with P1B5", "setting": "integrin α6β4", "result": "> 90", "unit": "%"}]}, {"molecule": "anti-integrin β4 antibody ASC-3", "values": [{"measurement": "inhibition of adhesion of A549 cells on laminin 5 after 1 hour, ASC-3 in association with P1B5", "setting": "integrin α6β4", "result": 70, "unit": "%"}]}, {"molecule": "B1", "values": [{"measurement": "binding result", "setting": "murine CD151", "result": "no binding"}]}, {"molecule": "B2", "values": [{"measurement": "binding result", "setting": "murine CD151", "result": "no binding"}]}]}
